Legend:
[1] = molecular target: T1, truncated recombinant form of HBeAg containing nine residues of pre-core and the 150 first residues of HBcAg (hepatitis B virus, UniProt P03146 1-150); assay: EIA, support-bound peptide, HBeAg 5 ug/ml
T1 construct: domain: nine residues of pre-core;range 1-150; also called hepatitis B virus e antigen

[2] = molecular target: T2, Full length recombinant HBcAg (rHBcAg) encompassing residues 1-183 (hepatitis B virus, UniProt P03146 1-183); assay: EIA, peptide coated 100 ug/ml, HBcAg 10 ug/ml
T2 construct: range 1-183; also called hepatitis B virus core antigen

[3] = molecular target: T2, Full length recombinant HBcAg (rHBcAg) …; assay: competition EIA, HBcAg coated 1 ug/ml, peptide 200 ug/ml before mAb 4-2 (competitor); OD of bound mAb
[4] = molecular target: T2, Full length recombinant HBcAg (rHBcAg) …; assay: competition EIA, HBcAg coated 5 ug/ml, peptide 12.5 ug/ml together with mAb 4-2 (competitor); OD of bound mAb
[5] = molecular target: T2, Full length recombinant HBcAg (rHBcAg) …; assay: EIA, support-bound peptide, HBcAg 0.67 ug/ml
[6] = molecular target: T2, Full length recombinant HBcAg (rHBcAg) …; assay: competition EIA, HBcAg coated 5 ug/ml, peptide 50 ug/ml together with mAb 4-2 (competitor); OD of bound mAb
[7] = molecular target: T2, Full length recombinant HBcAg (rHBcAg) …; assay: EIA, support-bound peptide, HBcAg 2 ug/well
[8] = molecular target: T2, Full length recombinant HBcAg (rHBcAg) …; assay: competition EIA, HBcAg coated 5 ug/ml, peptide 6.25 ug/ml together with mAb 4-2 (competitor); OD of bound mAb
[9] = molecular target: T2, Full length recombinant HBcAg (rHBcAg) …; assay: competition EIA, HBcAg coated 5 ug/ml, peptide 25 ug/ml together with mAb 4-2 (competitor); OD of bound mAb
[10] = molecular target: T2, Full length recombinant HBcAg (rHBcAg) …; assay: EIA, support-bound peptide, HBcAg 1.25 ug/ml
[11] = molecular target: T2, Full length recombinant HBcAg (rHBcAg) …; assay: EIA, peptide coated 50 ug/ml, HBcAg 10 ug/ml
[12] = molecular target: T2, Full length recombinant HBcAg (rHBcAg) …; assay: competition EIA, HBcAg coated 1 ug/ml, peptide 6.25 ug/ml before mAb 4-2 (competitor); OD of bound mAb
[13] = molecular target: T2, Full length recombinant HBcAg (rHBcAg) …; assay: competition EIA, HBcAg coated 1 ug/ml, peptide 50 ug/ml before mAb 4-2 (competitor); OD of bound mAb
[14] = molecular target: T1, truncated recombinant form of HBeAg …; assay: EIA, support-bound peptide, HBeAg 10 ug/ml
[15] = molecular target: T1, truncated recombinant form of HBeAg …; assay: EIA, support-bound peptide, HBeAg 2.5 ug/ml
[16] = molecular target: T2, Full length recombinant HBcAg (rHBcAg) …; assay: EIA, support-bound peptide, HBcAg 0.2 ug/well
[17] = molecular target: T2, Full length recombinant HBcAg (rHBcAg) …; assay: competition EIA, HBcAg coated 1 ug/ml, peptide 12.5 ug/ml before mAb 4-2 (competitor); OD of bound mAb
[18] = molecular target: T2, Full length recombinant HBcAg (rHBcAg) …; assay: EIA, support-bound peptide, HBcAg 2.5 ug/ml
[19] = molecular target: T1, truncated recombinant form of HBeAg …; assay: EIA, support-bound peptide, HBeAg 20 ug/ml
[20] = molecular target: T2, Full length recombinant HBcAg (rHBcAg) …; assay: competition EIA, HBcAg coated 5 ug/ml, peptide 200 ug/ml together with mAb 4-2 (competitor); OD of bound mAb
[21] = molecular target: T3, non-structural 3 protein (NS3) of the hepatitis C virus (HCV) (hepatitis C virus); assay: EIA, support-bound peptide, HCV NS3 control
T3 construct: Control antigen; also called HCV NS3

[22] = molecular target: T1, truncated recombinant form of HBeAg …; assay: EIA, support-bound peptide, HBeAg 0.67 ug/ml
[23] = molecular target: T2, Full length recombinant HBcAg (rHBcAg) …; assay: EIA, support-bound peptide, HBcAg 20 ug/ml

T1 sequence (P03146 1-150): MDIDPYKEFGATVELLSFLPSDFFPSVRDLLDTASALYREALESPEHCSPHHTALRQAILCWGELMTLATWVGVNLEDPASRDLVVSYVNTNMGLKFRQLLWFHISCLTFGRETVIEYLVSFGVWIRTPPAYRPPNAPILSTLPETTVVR
T2 sequence (P03146 whole entry, the tested form may be a part): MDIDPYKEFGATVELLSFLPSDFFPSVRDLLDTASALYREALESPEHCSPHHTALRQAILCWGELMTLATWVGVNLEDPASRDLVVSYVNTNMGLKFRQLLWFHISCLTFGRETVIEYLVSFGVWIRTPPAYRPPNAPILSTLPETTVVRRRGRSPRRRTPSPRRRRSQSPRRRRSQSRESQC

Binder	OD [1]	OD [2]	OD at 490 nm [3]	OD at 490 nm [4]	OD [5]	OD at 490 nm [6]	OD at 405 nm [7]	OD at 490 nm [8]	OD at 490 nm [9]	OD [10]	OD [11]	OD at 490 nm [12]	OD at 490 nm [13]	OD [14]	OD [15]	OD at 405 nm [16]	OD at 490 nm [17]	OD [18]	OD [19]	OD at 490 nm [20]	also measured
LAVSLGQRATISCRASQSVS [LAVSLGQRATISCRASQSVS (SEQ. ID. No. 16)]	0.038 OD	0.9 OD	0.299 OD	1.04 OD	0.028 OD	0.998 OD	3.11 OD	0.979 OD	1.03 OD	0.079 OD	0.434 OD	0.35 OD	0.364 OD	0.06 OD	0.03 OD	0.807 OD	0.365 OD	0.195 OD	0.393 OD	0.859 OD	OD at 405 nm [21]: 0.128 OD; OD [22]: 0.024 OD; OD [23]: 2.63 OD
ISCRASQSVSTSSYSYMHWY [ISCRASQSVSTSSYSYMHWY (SEQ. ID. No. 17)]	0.132 OD	0.641 OD	0.305 OD	1.44 OD	0.039 OD	1.56 OD	2.48 OD	1.26 OD	1.39 OD	0.117 OD	0.569 OD	0.37 OD	0.402 OD	0.246 OD	0.102 OD	0.449 OD	0.38 OD	0.252 OD	0.687 OD	1.47 OD	OD at 405 nm [21]: 0.156 OD; OD [22]: 0.046 OD; OD [23]: 2.66 OD
VKPGASVKISCKASGYSFTG (also called Peptide # 25) [VKPGASVKISCKASGYSFTG (SEQ. ID. No. 28)]	0.05 OD	1.01 OD	0.173 OD	1.21 OD	0.036 OD	1.22 OD	3.13 OD	1.18 OD	1.2 OD	0.058 OD	0.766 OD	0.329 OD	0.312 OD	0.096 OD	0.115 OD	0.845 OD	0.339 OD	0.159 OD	0.319 OD	0.302 OD	OD at 405 nm [21]: 0.097 OD; OD [22]: 0.022 OD; OD [23]: 2.65 OD
CKASGYSFTGYNMNWVKQSH (also called Peptide # 26) [CKASGYSFTGYNMNWVKQSH (SEQ. ID. No. 29)]	0.091 OD	0.422 OD	0.201 OD	1.27 OD	0.028 OD	1.25 OD	2.29 OD	1.2 OD	1.35 OD	0.038 OD	0.198 OD	0.351 OD	0.337 OD	0.091 OD	0.063 OD	0.356 OD	0.357 OD	0.101 OD	0.241 OD	0.341 OD	OD at 405 nm [21]: 0.053 OD; OD [22]: 0.027 OD; OD [23]: 1.48 OD
VKPGASVKLSCKASGYIFTS (also called Peptide # 2; Pept. #2) [VKPGASVKLSCKASGYIFTS (SEQ. ID. No. 5)]	0.096 OD	1.45 OD	0.078 OD	0.824 OD	0.034 OD	0.395 OD	3.69 OD	0.867 OD	0.698 OD	0.155 OD	1.22 OD	0.336 OD	0.188 OD	0.222 OD	0.063 OD	1.15 OD	0.331 OD	0.374 OD	0.751 OD	0.139 OD	OD at 405 nm [21]: 0.269 OD; OD [22]: 0.081 OD; OD [23]: 3.45 OD

Reference: patent US20020058247A1 (TRIPEP, published 2002)
